Biological target: Cas9 (UniProt Q99ZW2 1-1368)
Assay: ITC; RNA 62.5 uM into Cas9 5 uM; n = 2.10; triplicate; dH -399.10 kcal/mol; ITC, 20 mM HEPES pH 7.6, 150 mM NaCl, 25 °C, 200 rpm; no Mg2+ listed
Conditions: protein: recombinant; intramolecular helices; dimer possible

Chain of Cas9 (Q99ZW2 whole entry): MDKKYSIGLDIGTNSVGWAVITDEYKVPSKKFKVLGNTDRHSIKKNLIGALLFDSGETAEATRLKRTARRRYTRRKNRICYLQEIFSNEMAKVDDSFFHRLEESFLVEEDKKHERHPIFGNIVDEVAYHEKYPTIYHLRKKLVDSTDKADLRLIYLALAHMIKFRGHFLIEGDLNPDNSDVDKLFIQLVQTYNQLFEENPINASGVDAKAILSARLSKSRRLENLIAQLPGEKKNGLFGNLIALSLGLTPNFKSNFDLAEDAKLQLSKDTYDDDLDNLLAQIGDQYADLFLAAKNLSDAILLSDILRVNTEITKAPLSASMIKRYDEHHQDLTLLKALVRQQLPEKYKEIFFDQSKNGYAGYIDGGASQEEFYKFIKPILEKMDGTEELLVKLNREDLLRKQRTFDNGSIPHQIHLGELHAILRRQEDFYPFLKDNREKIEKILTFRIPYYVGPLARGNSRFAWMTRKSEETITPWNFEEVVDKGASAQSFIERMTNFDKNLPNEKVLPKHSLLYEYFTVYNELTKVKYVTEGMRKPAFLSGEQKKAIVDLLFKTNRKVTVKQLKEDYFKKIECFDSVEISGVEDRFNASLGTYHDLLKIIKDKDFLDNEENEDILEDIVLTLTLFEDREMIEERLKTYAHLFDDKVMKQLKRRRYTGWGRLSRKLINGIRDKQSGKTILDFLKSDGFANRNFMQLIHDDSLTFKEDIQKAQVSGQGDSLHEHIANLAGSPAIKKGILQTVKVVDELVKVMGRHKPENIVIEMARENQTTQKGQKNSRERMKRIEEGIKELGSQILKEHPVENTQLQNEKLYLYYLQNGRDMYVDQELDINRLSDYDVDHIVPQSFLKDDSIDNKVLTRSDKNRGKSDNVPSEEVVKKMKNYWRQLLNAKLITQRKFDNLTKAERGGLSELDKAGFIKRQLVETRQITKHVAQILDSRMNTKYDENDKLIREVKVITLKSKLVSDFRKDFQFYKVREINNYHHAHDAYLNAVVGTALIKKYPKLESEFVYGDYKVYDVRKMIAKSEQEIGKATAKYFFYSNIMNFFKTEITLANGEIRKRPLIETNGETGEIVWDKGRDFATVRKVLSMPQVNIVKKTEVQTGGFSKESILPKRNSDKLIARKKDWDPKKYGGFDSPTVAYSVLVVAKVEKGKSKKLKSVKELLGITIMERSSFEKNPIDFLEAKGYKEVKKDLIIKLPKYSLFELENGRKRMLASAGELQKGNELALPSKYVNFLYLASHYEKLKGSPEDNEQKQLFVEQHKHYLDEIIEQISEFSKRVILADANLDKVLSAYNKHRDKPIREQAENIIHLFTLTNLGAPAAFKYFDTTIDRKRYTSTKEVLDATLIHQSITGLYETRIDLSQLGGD

B1: RNA (sgRNA) (structured_RNA)
RNA: GGUUGGACAUGCUCGACAUUCGUUUUAGAGCUAGAAAUAGCAAGUUAAAAUAAGGCUAGUCCGUUAUCAACUUGAAAAAGUGGCACCGAGUCGGUGCUUUUUU
B1 was tested, and the Kd was 2210 nM.
